In the supplement of paper PMC10724198:
± gives the standard deviation of the averaged measurements.

Experiments:
[1] = test system: Saccharomyces cerevisiae; assay: protein stability index of tFT-peptide fusion (C-terminal peptide) (PSI (0-1 scale)); higher = more stable (slower turnover)
Procedure: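 MPS profiling in S. cerevisiae of the tFT-X12 degron library: putative degron peptides plus stable controls, 12 aa, fused to the C-terminus of a sfGFP-mCherry timer. Cells are FACS-sorted into 8 mCherry/sfGFP bins and deep-sequenced. PSI runs from 0 (unstable) to 1 (stable). Backgrounds are wild type, das1Δ and doa10Δ at 30 °C, and wild type, das1Δ, cdc34-1 and cdc53-1 at 37 °C; 2-3 technical replicates each.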

[2] = test system: Saccharomyces cerevisiae; assay: as above; conditions: genetic background: wild type; temperature: 30 C
[3] = genetic background: cdc34-1, temperature: 37 C
[4] = genetic background: cdc53-1, temperature: 37 C
[5] = genetic background: das1 deletion, temperature: 30 C
[6] = genetic background: das1 deletion, temperature: 37 C
[7] = genetic background: doa10 deletion, temperature: 30 C
[8] = genetic background: wild type, temperature: 30 C
[9] = genetic background: wild type, temperature: 37 C
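Further: PSI is a weighted mean of sequencing reads over stability bins, variants kept only with over 10 reads, mCherry proximal and sfGFP distal, peptide attached via GGGS linker.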

VFGFSLLTLLVL gave a protein stability index [1, 3] of 0.441 ± 0.0078, a protein stability index [1, 4] of 0.511 ± 0.025 and a protein stability index [1, 5] of 0.386 ± 0.0081. For the same sequence, the protein stability index [1, 6] was 0.5062 ± 0.0021, the protein stability index [1, 7] was 0.324 ± 0.011 and the protein stability index [1, 8] was 0.347 ± 0.024. For the same sequence, the protein stability index [1, 9] was 0.467 ± 0.019 and the protein stability index [2] was 0.439 ± 0.022.

With VFRRWGLIGVIV the protein stability index [1, 3] was 0.306 ± 0.026, the protein stability index [1, 4] was 0.326 ± 0.022 and the protein stability index [1, 5] was 0.278 ± 0.041. It also gave a protein stability index [1, 6] of 0.434 ± 0.018, a protein stability index [1, 7] of 0.181 ± 0.0038 and a protein stability index [1, 8] of 0.226 ± 0.032. For the same sequence, the protein stability index [1, 9] was 0.353 ± 0.0088 and the protein stability index [2] was 0.378 ± 0.0068.

For VFSGGGFFLKVV, the protein stability index [1, 3] was 0.67453 ± 9.2e-05, the protein stability index [1, 4] was 0.765 ± 0.01 and the protein stability index [1, 5] was 0.651 ± 0.024. It also gave a protein stability index [1, 6] of 0.755 ± 0.022, a protein stability index [1, 7] of 0.19 ± 0.0039 and a protein stability index [1, 8] of 0.215 ± 0.023. It also gave a protein stability index [1, 9] of 0.504 ± 0.02 and a protein stability index [2] of 0.3766 ± 0.0029.

VFSVSVLFLFFH was tested, and the protein stability index [1, 3] was 0.286 ± 0.0084, the protein stability index [1, 4] was 0.392 ± 0.0056 and the protein stability index [1, 5] was 0.282 ± 0.034. For the same sequence, the protein stability index [1, 6] was 0.456 ± 0.015, the protein stability index [1, 7] was 0.251 ± 0.011 and the protein stability index [1, 8] was 0.242 ± 0.038. It also gave a protein stability index [1, 9] of 0.381 ± 0.019 and a protein stability index [2] of 0.377 ± 0.032.

For VFVLFCAFVRAL, the protein stability index [1, 3] was 0.212 ± 0.025, the protein stability index [1, 4] was 0.413 ± 0.032 and the protein stability index [1, 5] was 0.286 ± 0.036. For the same sequence, the protein stability index [1, 6] was 0.482 ± 0.014, the protein stability index [1, 7] was 0.0841 ± 0.013 and the protein stability index [1, 8] was 0.0907 ± 0.0079. For the same sequence, the protein stability index [1, 9] was 0.096736 ± 8.4e-05 and the protein stability index [2] was 0.2111 ± 0.00022.

VFVLFLRAVACR showed a protein stability index [1, 3] of 0.0227 ± 0.0013, a protein stability index [1, 4] of 0.0336 ± 0.0004 and a protein stability index [1, 5] of 0.0288 ± 0.0046. It also gave a protein stability index [1, 6] of 0.0423 ± 0.0022, a protein stability index [1, 7] of 0.0174 ± 0.0024 and a protein stability index [1, 8] of 0.0193 ± 0.0039. The protein stability index [1, 9] was 0.0342 ± 0.015 and the protein stability index [2] was 0.0236 ± 0.013.

With VFVMVLCALFYF the protein stability index [1, 3] was 0.248 ± 0.034, the protein stability index [1, 4] was 0.282 ± 0.04 and the protein stability index [1, 5] was 0.242 ± 0.032. It also gave a protein stability index [1, 6] of 0.38 ± 0.032, a protein stability index [1, 7] of 0.2436 ± 0.0014 and a protein stability index [1, 8] of 0.236 ± 0.017. It also gave a protein stability index [1, 9] of 0.319 ± 0.015 and a protein stability index [2] of 0.279 ± 0.022.

With VFYRPFFVLFFV the protein stability index [1, 3] was 0.246 ± 0.026, the protein stability index [1, 4] was 0.228 ± 0.004 and the protein stability index [1, 5] was 0.265 ± 0.022. For the same sequence, the protein stability index [1, 6] was 0.413 ± 0.011, the protein stability index [1, 7] was 0.113 ± 0.016 and the protein stability index [1, 8] was 0.0946 ± 0.022. It also gave a protein stability index [1, 9] of 0.152 ± 0.0038 and a protein stability index [2] of 0.114 ± 0.0065.

For VGDVVWFGVGAG, the protein stability index [1, 3] was 0.733 ± 0.033, the protein stability index [1, 4] was 0.7757 ± 0.0042 and the protein stability index [1, 5] was 0.662 ± 0.0049. It also gave a protein stability index [1, 6] of 0.782 ± 0.0084, a protein stability index [1, 7] of 0.662 ± 0.022 and a protein stability index [1, 8] of 0.6566 ± 0.005. For the same sequence, the protein stability index [1, 9] was 0.7438 ± 0.0022 and the protein stability index [2] was 0.761 ± 0.023.

Sequence VGEQEVVGIGGV has a protein stability index [1, 3] of 0.674 ± 0.039, a protein stability index [1, 4] of 0.7077 ± 0.0065 and a protein stability index [1, 5] of 0.653 ± 0.021. The protein stability index [1, 6] was 0.735 ± 0.046, the protein stability index [1, 7] was 0.642 ± 0.026 and the protein stability index [1, 8] was 0.646 ± 0.023. For the same sequence, the protein stability index [1, 9] was 0.719 ± 0.03 and the protein stability index [2] was 0.695 ± 0.018.

Work on VGGGCVVVVRWG yielded a protein stability index [1, 3] of 0.589 ± 0.044, a protein stability index [1, 4] of 0.615 ± 0.02 and a protein stability index [1, 5] of 0.485 ± 0.019. For the same sequence, the protein stability index [1, 6] was 0.619 ± 0.009, the protein stability index [1, 7] was 0.477 ± 0.022 and the protein stability index [1, 8] was 0.475 ± 0.012. It also gave a protein stability index [1, 9] of 0.594 ± 0.0083 and a protein stability index [2] of 0.52 ± 0.035.

With VGLWCWSFVLVW the protein stability index [1, 3] was 0.0589 ± 0.018, the protein stability index [1, 4] was 0.0934 ± 0.034 and the protein stability index [1, 5] was 0.11 ± 0.03. The protein stability index [1, 6] was 0.189 ± 0.0028, the protein stability index [1, 7] was 0.0842 ± 0.021 and the protein stability index [1, 8] was 0.103 ± 0.023. For the same sequence, the protein stability index [1, 9] was 0.153 ± 0.0027 and the protein stability index [2] was 0.156 ± 0.038.

VGRVIVIVVAGV was tested, and the protein stability index [1, 3] was 0.329 ± 0.012, the protein stability index [1, 4] was 0.395 ± 0.016 and the protein stability index [1, 5] was 0.274 ± 0.036. It also gave a protein stability index [1, 6] of 0.4541 ± 0.0045, a protein stability index [1, 7] of 0.236 ± 0.0065 and a protein stability index [1, 8] of 0.267 ± 0.028. For the same sequence, the protein stability index [1, 9] was 0.423 ± 0.022 and the protein stability index [2] was 0.375 ± 0.033.

Sequence VGVCGSSGRVGG has a protein stability index [1, 3] of 0.688 ± 0.03, a protein stability index [1, 4] of 0.7314 ± 0.0042 and a protein stability index [1, 5] of 0.641 ± 0.014. It also gave a protein stability index [1, 6] of 0.718 ± 0.0032, a protein stability index [1, 7] of 0.643 ± 0.021 and a protein stability index [1, 8] of 0.645 ± 0.012. It also gave a protein stability index [1, 9] of 0.717 ± 0.024 and a protein stability index [2] of 0.7 ± 0.025.

VGVIGWGGLGVG showed a protein stability index [1, 3] of 0.486 ± 0.048, a protein stability index [1, 4] of 0.5527 ± 0.0051 and a protein stability index [1, 5] of 0.487 ± 0.019. It also gave a protein stability index [1, 6] of 0.549 ± 0.015, a protein stability index [1, 7] of 0.4929 ± 0.0046 and a protein stability index [1, 8] of 0.485 ± 0.014. The protein stability index [1, 9] was 0.542 ± 0.023 and the protein stability index [2] was 0.492 ± 0.00099.

VHGWRPLLFHTR gave a protein stability index [1, 3] of 0.648 ± 0.032, a protein stability index [1, 4] of 0.668 ± 0.0099 and a protein stability index [1, 5] of 0.647 ± 0.0073. It also gave a protein stability index [1, 6] of 0.702 ± 0.031, a protein stability index [1, 7] of 0.674 ± 0.024 and a protein stability index [1, 8] of 0.622 ± 0.024. The protein stability index [1, 9] was 0.6989 ± 0.0063 and the protein stability index [2] was 0.519 ± 0.13.

Work on VHTAIFTSWRRL yielded a protein stability index [1, 3] of 0.696 ± 0.048, a protein stability index [1, 4] of 0.738 ± 0.018 and a protein stability index [1, 5] of 0.631 ± 0.04. For the same sequence, the protein stability index [1, 6] was 0.7721 ± 0.001, the protein stability index [1, 7] was 0.481 ± 0.018 and the protein stability index [1, 8] was 0.494 ± 0.017. It also gave a protein stability index [1, 9] of 0.685 ± 0.02 and a protein stability index [2] of 0.491 ± 0.028.

Sequence VIGLLSYFLVYL has a protein stability index [1, 3] of 0.498 ± 0.061, a protein stability index [1, 4] of 0.513 ± 0.0062 and a protein stability index [1, 5] of 0.407 ± 0.037. It also gave a protein stability index [1, 6] of 0.6091 ± 0.0039, a protein stability index [1, 7] of 0.438 ± 0.032 and a protein stability index [1, 8] of 0.406 ± 0.019. It also gave a protein stability index [1, 9] of 0.581 ± 0.03 and a protein stability index [2] of 0.491 ± 0.02.

For VIRSIVSAYMIC, the protein stability index [1, 3] was 0.552 ± 0.043, the protein stability index [1, 4] was 0.649 ± 0.013 and the protein stability index [1, 5] was 0.563 ± 0.013. For the same sequence, the protein stability index [1, 6] was 0.6726 ± 0.0028, the protein stability index [1, 7] was 0.255 ± 0.0033 and the protein stability index [1, 8] was 0.248 ± 0.02. It also gave a protein stability index [1, 9] of 0.334 ± 0.037 and a protein stability index [2] of 0.293 ± 0.051.

For VISGFVLVFRVR, the protein stability index [1, 3] was 0.509 ± 0.0038, the protein stability index [1, 4] was 0.543 ± 0.029 and the protein stability index [1, 5] was 0.356 ± 0.022. It also gave a protein stability index [1, 6] of 0.591 ± 0.066, a protein stability index [1, 7] of 0.379 ± 0.026 and a protein stability index [1, 8] of 0.344 ± 0.032. It also gave a protein stability index [1, 9] of 0.566 ± 0.035 and a protein stability index [2] of 0.441 ± 0.028.
